This experiment deals with CD11b (alpha subunit of the Mac-1 receptor, CD11b/CD18) (human (endogenous in neutrophils)) (UniProt P11215).

Consider “Candida albicans secreted aspartyl protease 6 (Sap6) (from UniProt Q5AC08 19-418) (enzyme)”, for which the ROS production after PMA in neutrophils incubated with Sap6 1200 ng/ml with CD11b blocked by an antibody, relative to PMA-stimulated control neutrophils (50% without the blockade) came to 85%.
